What is called stoichiometry N is a count of units in the complex or per binding partner.

Where “and” joins values, the source holds several entries; their conditions need not be identical. Equal entries are not always repeated.

For data set [1], the target named is H3T3 phosphorylated nucleosome core particle (H3T3ph NCP) (UniProt P62805). In words: mass photometry; CPC-NCP complexes diluted to 20 nM (legend of Fig. EV1D: 50 nM) in 20 mM HEPES pH 8.0, 50 mM NaCl, 1 mM EDTA, 1 mM DTT; Refeyn TwoMP; Gaussian fitting of mass populations.
The target of data set [2] is CPC I1-190 SB dloop del110-206;Borealin (UniProt Q9NQS7+O15392+Q53HL2). In words: EMSA. The following applies: histone H3 T3ph (native ligation, H3T32C); EMSA: 20 nM NCP, 10 mM Tris pH 7.5, 250 mM NaCl, 1 mM MgCl2, 1 mM DTT, 1% glycerol, 0.1 mg/ml BSA, 1 h on ice; gel at 4 C. SPR buffer not in the material. A general note: Mobility shift assays separate free from complexed probe on a gel.

The target in data set [3] is CPC I1-190 6A SB R65A;R66A;K67A;K68A;R69A;R70A;INCENP (UniProt Q9NQS7+O15392+Q53HL2). The data set can be described thus: EMSA. Conditions: histone H3 T3ph; EMSA: 20 nM NCP, 10 mM Tris pH 7.5, 250 mM NaCl, 1 mM MgCl2, 1 mM DTT, 1% glycerol, 0.1 mg/ml BSA, 1 h on ice; gel at 4 C. SPR buffer not in the material.
Data set [4] deals with CPC I1-190 6A SB dloop R65A;R66A;K67A;K68A;R69A;R70A;internal_change (UniProt Q9NQS7+O15392+Q53HL2). In words: EMSA. Conditions: histone H3 T3ph; EMSA: 20 nM NCP, 10 mM Tris pH 7.5, 250 mM NaCl, 1 mM MgCl2, 1 mM DTT, 1% glycerol, 0.1 mg/ml BSA, 1 h on ice; gel at 4 C. SPR buffer not in the material.
Data set [5] deals with H3T3 phosphorylated nucleosome core particle (H3T3ph NCP) (UniProt P62805). In words: native gel or EMSA; 20 nM H3T3ph NCPs wrapped with centromeric α-satellite DNA; CPC 7.8 nM to 2 µM, 1 h on ice; 10 mM Tris pH 7.5, 250 mM NaCl, 1 mM MgCl2, 1 mM DTT, 1% glycerol, 0.1 mg/ml BSA; gel at 4 °C; unbound NCP band quantified, specific binding with Hill slope.

Take “CPC_(I1-58SB) (containing INCENP 1-58, full-length Survivin and full-length Borealin) (from UniProt Q53HL2 1-280; O15392 1-142; Q9NQS7 1-58) (complex)”: the stoichiometry N in data set [1] was 2 CPC per NCP and 1 CPC per NCP.
Same read-out and setting: next, “CPC_(I1-58SBS266D) (containing INCENP 1-58, full-length Survivin and full-length Borealin dimer breaking mutant, S266D) (from UniProt Q53HL2 1-280; O15392 1-142; Q9NQS7 1-58) (complex)”: 1 CPC per NCP and 2 CPC per NCP.
In data set [2], “ACAGGATGTATATATGTGACACGTGCCTGGAGACTAGGGAGTAATCCCCTTGGCGGTTAAAACGCGGGGGACAGCGCGTACGTGCGTTTAAGCGGTGCTAGAGCTGTCTACGACCAATTGAGCGGCCTCGGCACCGGGATTCTCCAG (double strand) [H3T3ph NCP, Widom 601 147 bp]” registered a fold decrease in binding affinity vs P1 (fold decrease in affinity vs P1) of 12.
As to H3T3ph NCP, alpha-satellite 147 bp, the binding signal (fold weaker vs P1) in data set [3] came to 1.5. Further, the binding signal in data set [4] came out at 13 fold.
Substance “CPC_(I1-190 6ASB) (INCENP with RRKKRR mutated to AAAAAA) (from UniProt Q53HL2 1-280; O15392 1-142; Q9NQS7 1-190) (complex)” displayed a times weaker binding against CPC (I1-190SB) in data set [5] of 1.5 times.
Consider “CPC_(I1-190SB) (CPC containing INCENP 1-190, full-length Survivin and full-length Borealin) (from UniProt Q53HL2 1-280; O15392 1-142; Q9NQS7 1-190) (complex)”, for which the stoichiometry N in data set [1] amounted to 2 CPC per NCP.

These data come from PMC12624148.
